The values that follow come from US20160199445A1 (CENTRE NATIONAL DE LA RECHERCHE SCIENTIFIQUE, published 2016).

The target of the assay is T1, Purified Arp2/3 complex.
T1 construct: Used in fluorescence anisotropy, pyrene-actin and TIRF assays
Put plainly: fluorescence anisotropy, competition with labelled ArpinA bound to purified Arp2/3 complex. A general note: Polarisation of emitted light reports the rotation of a fluorescent probe.

B1: ArpinA peptide (residues 211-226 of full length Arpin), unlabelled synthetic peptide (peptide)
peptide: EIREQGDGAEDEEWDD
notes: Purchased from Proteogenix; also called Arpin Acidic peptide; Acidic peptide
Broadly, the Kd is the concentration at which binding is half-saturated. Higher therefore signals weaker binding. Regarding B1, binding was characterised by a dissociation constant (Kd) of 1030 nM.
